According to paper PMC10004559, “Identification of residues involved in allosteric signal transmission from amino acid binding site of pyruvate kinase muscle isoform 2” (PLOS ONE, 2023):

Target: the molecule itself
Assay: SEC; 0.1 mg/ml enzyme in storage buffer (20-50 mM Tris-HCl pH 7.5, 150 mM KCl, 5% glycerol, 0.5 mM EDTA) with 10 mM THP, incubated 15 min without or with 10 mM Asn/Asp/Val/Cys; Superdex 200 10/300 GL, 0.5 ml/min; self-association, tetramer against dimer/monomer

B1: PKM2 R106A (enzyme)
chain: not shown
notes: Pyruvate kinase muscle isoform 2 (PKM2), human, UniProt P14618, with R106A; cloned in pET28a; No tag cleavage is described
With B1 the “stoichiometry N” value was 4.

B2: PKM2 N75L (enzyme)
chain: not shown
notes: Pyruvate kinase muscle isoform 2 (PKM2), human, UniProt P14618, with N75L; cloned in pET28a; No tag cleavage is described
For B2, the “stoichiometry N” value was 4.

B3: PKM2 N70D (enzyme)
chain: not shown
notes: Pyruvate kinase muscle isoform 2 (PKM2), human, UniProt P14618, with N70D; cloned in pET28a; not shown: His6, N-terminal, kept
B3 was tested, and the “stoichiometry N” value was 4.
